# Changes are numbered by the printed parent chain. Names may count otherwise.
# T1: isolated BIR3 domain of XIAP, P98170
# T1 chain: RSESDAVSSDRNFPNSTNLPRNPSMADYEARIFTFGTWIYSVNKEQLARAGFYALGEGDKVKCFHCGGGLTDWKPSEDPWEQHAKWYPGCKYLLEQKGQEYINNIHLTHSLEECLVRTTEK
# B1: single mutant (D315A) caspase-9 (enzyme)
# chain: MDEADRRLLRRCRLRLVEELQVDQLWDALLSRELFRPHMIEDIQRAGSGSRRDQARQLIIDLETRGSQALPLFISCLEDTGQDMLASFLRTNRQAAKLSKPTLENLTPVVLRPEIRKPEVLRPETPRPVDIGSGGFGDVGALESLRGNADLAYILSMEPCGHCLIINNVNFCRESGLRTRTGSNIDCEKLRRRFSSLHFMVEVKGDLTAKKMVLALLELAQQDHGALDCCVVVILSHGCQASHLQFPGAVYGTDGCPVSVEKIVNIFNGTSCPSLGGKPKLFFIQACGGEQKDHGFEVASTSPEDESPGSNPEPAATPFQEGLRTFDQLDAISSLPTPSDIFVSYSTFPGFVSWRDPKSGSWYVETLDDIFEQWAHSEDLQSLLLRVANAVSVKGIYKQMPGCFNFLRKKLFFKTS
# notes: also called caspase-9 D315A
# B2: double mutant (D315/D330A) caspase-9 (enzyme)
# chain: B1 chain with D330A
# notes: also called caspase-9 D315/330A
# B3: GG: caspase-9 with first two p12 residues Ala-Thr mutated to Gly-Gly (protein, UniProt P55211 1-416, looked up, variant A316G T317G)
# chain: B1 chain with A315D, A316G, T317G
# B4: SG: caspase-9 with first two p12 residues Ala-Thr mutated to Ser-Gly (protein, UniProt P55211 1-416, looked up, variant A316S T317G)
# chain: B1 chain with A315D, A316S, T317G
# B5: Smac-GST: mature Smac/DIABLO GST-fusion protein (protein)
# chain: AVPIAQKSEPHSLSSEALMRRAVSLVTDSTSTFLSQTTYALIEAITEYTKAVYTLTSLYRQYTSLLGKMNSEEEDEVWQVIIGARAEMTSKHQEYLKLETTWMTAVGLSEMAAEAAYQTGADQASITARNHIQLVKLQVEEVHQLSRKAETKLAEAQIEELRQKTQEEGEERAESEQEAYLRED
# modifications: left off: a dimerising Fc or GST
# notes: mature Smac/DIABLO GST-fusion protein
# B6: SGVD176-179AVPF: caspase-3 with first four residues of p12 substituted with AVPF (protein)
# chain 1: SGISLDNSYKMDYPEMGLCIIINNKNFHKSTGMTSRSGTDVDAANLRETFRNLKYEVRNKNDLTREEIVELMRDVSKEDHSKRSSFVCVLLSHGEEGIIFGTNGPVDLKKITNFFRGDRCRSLTGKPKLFIIQACRGTELDCGIETD
# chain 2: AVPFDDMACHKIPVEADFLYAYSTAPGYYSWRNSKDGSWFIQSLCAMLKQYADKLEFMHILTRVNRKVATEFESFSFDATFHAKKQIPCIVSMLTKELYFYH
# B7: Caspase-9-p12 C-terminal GST fusion protein (residues 316-416 of SEQ ID NO:1) (other, not shown: a dimerising Fc or GST)
# chain: ATPFQEGLRTFDQLDAISSLPTPSDIFVSYSTFPGFVSWRDPKSGSWYVETLDDIFEQWAHSEDLQSLLLRVANAVSVKGIYKQMPGCFNFLRKKLFFKTS
# notes: also called p12-GST; GST-p12
# B8: p12: C-terminal GST fusion protein of Caspase-9-p12 (residues 316-416 of SEQ ID NO:1) (protein)
# chain: B7 chain
# modifications: left off: a dimerising Fc or GST
# B9: caspase-9 linker deletion mutant (residues 316 to 330 of SEQ ID NO:1 deleted) (protein)
# chain 1: MDEADRRLLRRCRLRLVEELQVDQLWDALLSRELFRPHMIEDIQRAGSGSRRDQARQLIIDLETRGSQALPLFISCLEDTGQDMLASFLRTNRQAAKLSKPTLENLTPVVLRPEIRKPEVLRPETPRPVDIGSGGFGDVGALESLRGNADLAYILSMEPCGHCLIINNVNFCRESGLRTRTGSNIDCEKLRRRFSSLHFMVEVKGDLTAKKMVLALLELAQQDHGALDCCVVVILSHGCQASHLQFPGAVYGTDGCPVSVEKIVNIFNGTSCPSLGGKPKLFFIQACGGEQKDHGFEVASTSPEDESPGSNPEPD
# chain 2: AISSLPTPSDIFVSYSTFPGFVSWRDPKSGSWYVETLDDIFEQWAHSEDLQSLLLRVANAVSVKGIYKQMPGCFNFLRKKLFFKTS
# B10: fully processed wild-type (WT) caspase-9 (enzyme)
# chain 1: B9 chain 1
# chain 2: B7 chain
# notes: Procaspase-9 overexpressed in E. coli, completely processed into p35 and p12 (greater than 90% at Asp315, about 10% at Asp330 giving p10, minor at Glu306); also called wild type caspase-9; processed caspase-9; not shown: C-terminal 6-Histidine tag from pET-21c or pET-28a
# B11: p10-GST: C-terminal GST fusion protein of caspase-9 p10 (residues 331-416 of SEQ ID NO:1) (protein)
# chain: B9 chain 2
# modifications: left off: a dimerising Fc or GST
# Assays:
# XIAP [1] = target: T2, XIAP (Homo sapiens, UniProt P98170); experiment: Cytochrome c-dependent caspase-3 activation in 293T S100 extracts containing XIAP (DEVD-AMC); type: biochemical; conditions: 25, 100 and 500 μM peptide, XIAP 10 nM, cytochrome c and dATP
# T2 construct: made in house; host or cells: in vitro translation (cell-free)
# Method: The activity of caspase-3 in the S100 extracts was measured using the peptide substrate DEVD-AMC.
# XIAP [2] = target: T2, XIAP; experiment: Far Western blot analysis with 35S-labeled XIAP; type: binding; conditions: for binding of XIAP by Far Western: proteins on nitrocellulose membrane, denatured and renatured; for ability to interact with BIR3 (Far western, FIG. 12B): recombinant caspase-9 mutants
# [3] = target: T3, X-linked inhibitor of apoptosis protein (XIAP), full length (UniProt P98170 1-497); experiment: Far western with 35S-labeled XIAP
# T3 construct: Used as in vitro translated 35S-labeled full length XIAP (pull-down, Far western) or as purified XIAP (holoenzyme experiments); also called full length XIAP; 35S-labeled XIAP
# [4] = target: T4, E314S mutant BIR3 domain of XIAP (Homo sapiens, UniProt P98170, E314S); experiment: Interaction of GST fusion proteins with 35S-labeled E314S mutant BIR3; type: binding; conditions: compared with WT BIR3
# T4 construct: made in house
# Description: (§1) The C-terminal GST fusion proteins were expressed in bacteria and then immobilized onto glutathione-affinity resin. […] The caspase-9 deletion mutants used in these studies are represented by bar diagrams above the panel in FIG. 10.
# [5] = target: T5, isolated BIR3 domain of XIAP (UniProt P98170 238-358, limits assumed); experiment: method not stated
# T5 construct: domain: BIR3; In vitro translated 35S-labeled BIR3 in pull-downs; purified XIAP-BIR3 in enzyme assays; also called XIAP-BIR3; WT BIR3
# [6] = target: T6, E314S mutant BIR3 domain of XIAP (UniProt P98170 238-358, limits assumed); experiment: GST pull-down of 35S-labeled E314S BIR3
# T6 construct: domain: BIR3; 35S-labeled, in vitro translated
# full length XIAP = target: T7, full length XIAP (Homo sapiens, UniProt P98170); experiment: In vitro interaction assay of GST fusion proteins with 35S-labeled XIAP; type: binding; conditions: for interaction with full length XIAP: C-terminal GST fusion proteins immobilized onto glutathione-affinity resin
# T7 construct: full length XIAP or the isolated BIR3 domain of XIAP; made in house; host or cells: in vitro translation (cell-free)
# Description: as §1
# [7] = target: T8, isolated BIR3 domain of XIAP (Homo sapiens, UniProt P98170); experiment: In vitro interaction assay of GST fusion proteins with 35S-labeled BIR3; type: binding; conditions: for interaction with isolated BIR3 domain of XIAP: C-terminal GST fusion proteins immobilized onto glutathione-affinity resin
# T8 construct: full length XIAP or the isolated BIR3 domain of XIAP; made in house; host or cells: in vitro translation (cell-free)
# Description: as §1
# [8] = target: T1, isolated BIR3 domain of XIAP, P98170
# [9] = target: T3, X-linked inhibitor of apoptosis protein …; experiment: gel filtration on Superose 6 and immunoblot of fractions
# [10] = less than p12 and linker peptide
molecule,measurement,setting,value
ATPFQ (listed as Homo sapiens) [p12-N5],promoting caspase-3 activation in XIAP containing extracts,XIAP [1],as effective in promoting caspase-3 activation as the Smac-N5 or N7 peptides
B1,binding of XIAP by Far Western,XIAP [2],not able to bind
same,binding result,[3],no binding
B2,binding of XIAP by Far Western,XIAP [2],not able to bind
same,binding result,[3],no binding
B3,"ability to interact with BIR3 (Far western, FIG. 12B)",XIAP [2],lost significantly the ability to interact
B4,"ability to interact with BIR3 (Far western, FIG. 12B)",XIAP [2],lost significantly the ability to interact
B5,binding of XIAP by Far Western,XIAP [2],able to bind
same,binding to E314S mutant BIR3,[4],abrogated binding
AVPIAQK [Smac-N7 peptide (AVPIAQK)],Kd,[5],~810 nM
ATPFQEGLRTFDQLD [chemically synthesized caspase-9 linker peptide (ATPFQEGLRTFDQLD)],Kd,[5],550 nM
B6,binding of XIAP by Far Western,XIAP [2],enhanced binding
B7,binding result,[3],binds
same,binding result,[6],no binding
B8,interaction with full length XIAP,full length XIAP,able to interact
same,interaction with isolated BIR3 domain of XIAP,[7],able to interact
same,binding of XIAP by Far Western,XIAP [2],able to bind
same,binding to E314S mutant BIR3,[4],abrogated binding
B9,DEVD-AMC cleaving activity in S100 extracts with or without XIAP-BIR3 (20 nM),[8],"the deletion of the linker region did not inhibit enzymatic activity, even in the presence of XIAP-BIR3"
B10,binding result,[9],binds
B11,interaction with full length XIAP,full length XIAP,only weakly
same,"interaction with full length XIAP, fold less",full length XIAP; [10],50 to 100 fold
same,interaction with isolated BIR3 domain of XIAP,[7],only weakly
same,"interaction with BIR3 domain, fold less",[7]; [10],50 to 100 fold
same,binding of XIAP by Far Western,XIAP [2],not able to bind
